Laboratory results published in patent publication US20070031417A1 (UNIVERSITY OF MASSACHUSETTS, published 2007).

B1: RDE-4 (other)
chain: MDLTKLTFESVFGGSDVPMKPSRSEDNKTPRNRTDLEMFLKKTPLMVLEEAAKAVYQKTPTWGTVELPEGFEMTLILNEITVKGQATSKKAARQKAAVEYLRKVVEKGKHEIFFIPGTTKEEALSNIDQISDKAEELKRSTSDAVQDNDNDDSIPTSAEFPPGISPTENWVGKLQEKSQKSKLQAPIYEDSKNERTERFLVICTMCNQKTRGIRSKKKDAKNLAAWLMWKALEDGIESLESYDMVDVIENLEEAEHLLEIQDQASKIKDKHSALIDILSDKKRFSDYSMDFNVLSVSTMGIHQVLLEISFRRLVSPDPDDLEMGAEHTQTEEIMKATAEKEKLRKKNMPDSGPLVFAGHGSSAEEAKQCACKSAIIHFNTYDFTD
notes: Endogenous protein from C. elegans extract; also called T20G5.11

Experiments:
Assay in all cases: found in two independent RDE-4 purifications, absent from controls, MudPIT (P = present)
RDE-4 = target: B1
TBB-4 = target: T1, TBB-4 (Caenorhabditis elegans, UniProt P41937 1-444)
T1 construct: Endogenous protein from C. elegans extract; also called B0272.1; tubulin, Beta

[1] = target: T2, EFT-2, EF-Tu family GTP binding protein (Caenorhabditis elegans, UniProt P29691 2-852)
T2 construct: Endogenous protein from C. elegans extract; also called F25H5.4; translation elongation factor 2

T1 sequence (P41937 whole entry): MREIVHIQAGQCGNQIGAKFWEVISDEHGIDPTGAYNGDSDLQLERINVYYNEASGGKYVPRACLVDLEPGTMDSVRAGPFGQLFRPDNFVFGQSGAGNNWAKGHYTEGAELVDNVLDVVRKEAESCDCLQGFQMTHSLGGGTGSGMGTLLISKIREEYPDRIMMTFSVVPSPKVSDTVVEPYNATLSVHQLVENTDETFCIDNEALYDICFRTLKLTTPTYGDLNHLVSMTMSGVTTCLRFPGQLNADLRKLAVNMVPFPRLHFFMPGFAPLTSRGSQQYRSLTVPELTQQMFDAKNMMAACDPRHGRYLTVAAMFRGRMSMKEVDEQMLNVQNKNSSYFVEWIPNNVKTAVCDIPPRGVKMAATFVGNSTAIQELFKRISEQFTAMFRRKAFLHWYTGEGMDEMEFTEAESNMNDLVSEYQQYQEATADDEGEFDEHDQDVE

| binding result (RDE-4) | binding result (TBB-4) | binding result [1] | Binder |
| --- | --- | --- | --- |
| binds | – | – | DRH-2 (enzyme, Endogenous protein from C. elegans extract; also called C01B10.1; Dicer-Related Helicase) MIVNLCNEHRDPLDDEYPPEQFFLSTFTIIFFDECHNTVKNSPYSNVMREYHYLKNMGNMPEGHSFPQIIGLTASLGTGDKKNCMQVRSYIAGLCANMDVKELSIVKDNLEELLDHNPFVTDQVSFCERSNDGPIEMFTKRLKQMMQEVEDLIRTTLKNEPTVKYEIPPTDKEHNRYENWISNQRNCVSLAGSRNKTLIIEVLDVLKDCFYALSYNINFNPEVALKKYLEKELGPERIRNFTDNMNLIWDNCHRELVGIGSAENPMIARTVQFILDQNEQTSDFRAIIFVRTKKEADFLNYVLNDRLHELGIKSDWMSGQKKSTASSADISASKQKQMEKLKMFADGENQILVSTSVAEEGLDIPECSLVIKYNYATNETAHVQRRGRARARNSKCVLITNSIALHVQESNNLAKENLMTETISLIQNSPGEFRQCVDEESNKVWPRIQREDTDKAQRIKEQINRNIVYKIVCMKCDTVLCTNKDIRSKNTQYIVCNPGFWSLVRRIPLPLEQRASNKFNSTGSIECLGERCGSKLGQLIDVNTVNLPCLKVKSILLLIESTNERILVKQWKNILDEHFTPTTLKQRDVQTMKDADYGRAPIEFEHHTANGEVINVIRQA |
| – | binds | binds | B1 |
